Data on two molecules can be found in patent US20140072613A1 (published 2014).

Test in all cases: cell-based or functional assay
One assay concerns the target Lck(h) activated (human, UniProt P06239 1-509).
A further assay has as its target T1, PDK1(h) (human, UniProt O15530 1-556, limits assumed).
T1 sequence (looked up): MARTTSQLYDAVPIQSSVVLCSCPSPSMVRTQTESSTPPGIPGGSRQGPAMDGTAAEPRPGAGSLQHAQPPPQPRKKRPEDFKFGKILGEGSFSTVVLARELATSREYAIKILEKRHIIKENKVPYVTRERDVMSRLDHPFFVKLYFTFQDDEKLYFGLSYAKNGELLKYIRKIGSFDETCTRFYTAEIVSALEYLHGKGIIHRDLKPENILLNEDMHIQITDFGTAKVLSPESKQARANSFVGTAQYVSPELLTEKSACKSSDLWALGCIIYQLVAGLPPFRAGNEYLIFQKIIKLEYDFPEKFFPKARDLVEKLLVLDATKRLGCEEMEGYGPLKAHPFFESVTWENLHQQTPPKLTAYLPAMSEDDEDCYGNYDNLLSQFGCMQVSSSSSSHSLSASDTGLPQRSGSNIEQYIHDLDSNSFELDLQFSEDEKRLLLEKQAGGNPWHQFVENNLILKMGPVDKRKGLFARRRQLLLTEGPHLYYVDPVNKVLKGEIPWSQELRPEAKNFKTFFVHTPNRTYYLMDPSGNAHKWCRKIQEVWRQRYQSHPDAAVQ

The target of a further assay is T2, Axl(h) (human, UniProt P30530 473-894, limits assumed).
T2 sequence (looked up): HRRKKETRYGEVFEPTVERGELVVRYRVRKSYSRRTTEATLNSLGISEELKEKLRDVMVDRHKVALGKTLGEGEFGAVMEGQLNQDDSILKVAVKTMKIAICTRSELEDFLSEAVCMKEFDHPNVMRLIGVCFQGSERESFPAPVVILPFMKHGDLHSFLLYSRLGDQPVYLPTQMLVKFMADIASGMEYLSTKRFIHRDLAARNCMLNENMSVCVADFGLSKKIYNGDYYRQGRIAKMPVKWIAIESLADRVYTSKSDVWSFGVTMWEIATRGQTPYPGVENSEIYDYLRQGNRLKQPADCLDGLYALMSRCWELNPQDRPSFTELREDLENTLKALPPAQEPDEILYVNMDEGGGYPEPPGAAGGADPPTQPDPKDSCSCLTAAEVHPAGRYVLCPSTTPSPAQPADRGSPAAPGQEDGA

A further assay concerns the target Abl(h) (human, UniProt P00519 27-1130, limits assumed).
The next assay addresses T3, eEF-2K(h) (human, UniProt O00418 1-725, limits assumed).
T3 sequence (looked up): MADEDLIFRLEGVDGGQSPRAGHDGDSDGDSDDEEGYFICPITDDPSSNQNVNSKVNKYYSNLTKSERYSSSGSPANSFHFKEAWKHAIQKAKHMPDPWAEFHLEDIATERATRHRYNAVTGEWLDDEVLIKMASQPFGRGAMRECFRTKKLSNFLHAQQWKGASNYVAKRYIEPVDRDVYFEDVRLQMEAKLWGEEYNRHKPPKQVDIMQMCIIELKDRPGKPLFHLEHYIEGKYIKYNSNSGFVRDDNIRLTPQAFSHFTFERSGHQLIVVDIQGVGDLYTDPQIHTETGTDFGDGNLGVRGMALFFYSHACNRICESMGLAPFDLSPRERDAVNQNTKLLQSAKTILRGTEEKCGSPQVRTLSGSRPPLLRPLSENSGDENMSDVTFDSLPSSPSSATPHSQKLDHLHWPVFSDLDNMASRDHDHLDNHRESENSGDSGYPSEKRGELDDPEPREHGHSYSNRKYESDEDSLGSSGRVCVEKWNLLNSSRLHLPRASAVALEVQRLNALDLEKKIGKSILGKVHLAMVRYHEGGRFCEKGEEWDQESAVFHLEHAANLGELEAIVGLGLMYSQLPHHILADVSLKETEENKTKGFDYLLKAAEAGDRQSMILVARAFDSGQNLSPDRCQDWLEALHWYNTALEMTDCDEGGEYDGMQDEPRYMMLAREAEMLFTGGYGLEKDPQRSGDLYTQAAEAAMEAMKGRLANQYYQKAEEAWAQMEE

Another assay addresses T4, EphA5(h) (human, UniProt P54756 595-1037, limits assumed).
T4 sequence (looked up): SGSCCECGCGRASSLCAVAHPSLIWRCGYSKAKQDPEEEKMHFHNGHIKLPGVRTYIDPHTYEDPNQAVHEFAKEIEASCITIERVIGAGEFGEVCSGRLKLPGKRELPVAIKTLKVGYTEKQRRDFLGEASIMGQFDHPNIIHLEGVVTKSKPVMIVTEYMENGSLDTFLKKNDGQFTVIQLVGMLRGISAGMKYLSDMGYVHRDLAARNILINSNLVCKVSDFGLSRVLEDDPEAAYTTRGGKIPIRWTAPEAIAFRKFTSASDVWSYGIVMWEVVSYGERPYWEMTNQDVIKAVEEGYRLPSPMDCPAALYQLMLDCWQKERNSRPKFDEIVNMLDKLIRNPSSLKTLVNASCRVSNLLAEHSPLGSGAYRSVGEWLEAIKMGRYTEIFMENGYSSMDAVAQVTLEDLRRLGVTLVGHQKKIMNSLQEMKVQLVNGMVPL

The next assay has as its target T5, EphB1(h) (human, UniProt P54762 564-984, limits assumed).
T5 sequence (looked up): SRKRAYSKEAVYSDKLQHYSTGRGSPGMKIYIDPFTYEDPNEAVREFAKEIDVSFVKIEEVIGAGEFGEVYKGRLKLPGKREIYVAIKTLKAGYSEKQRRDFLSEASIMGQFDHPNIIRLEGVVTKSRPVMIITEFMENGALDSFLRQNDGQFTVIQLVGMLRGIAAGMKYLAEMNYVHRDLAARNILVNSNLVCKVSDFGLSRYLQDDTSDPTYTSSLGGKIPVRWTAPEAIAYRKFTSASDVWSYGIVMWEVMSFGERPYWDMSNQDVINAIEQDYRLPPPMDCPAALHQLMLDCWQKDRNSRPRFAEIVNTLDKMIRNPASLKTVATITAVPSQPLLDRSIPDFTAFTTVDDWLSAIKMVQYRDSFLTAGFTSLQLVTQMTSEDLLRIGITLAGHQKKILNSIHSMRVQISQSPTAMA

Abl(h), sequence (P00519 27-1130 limits assumed): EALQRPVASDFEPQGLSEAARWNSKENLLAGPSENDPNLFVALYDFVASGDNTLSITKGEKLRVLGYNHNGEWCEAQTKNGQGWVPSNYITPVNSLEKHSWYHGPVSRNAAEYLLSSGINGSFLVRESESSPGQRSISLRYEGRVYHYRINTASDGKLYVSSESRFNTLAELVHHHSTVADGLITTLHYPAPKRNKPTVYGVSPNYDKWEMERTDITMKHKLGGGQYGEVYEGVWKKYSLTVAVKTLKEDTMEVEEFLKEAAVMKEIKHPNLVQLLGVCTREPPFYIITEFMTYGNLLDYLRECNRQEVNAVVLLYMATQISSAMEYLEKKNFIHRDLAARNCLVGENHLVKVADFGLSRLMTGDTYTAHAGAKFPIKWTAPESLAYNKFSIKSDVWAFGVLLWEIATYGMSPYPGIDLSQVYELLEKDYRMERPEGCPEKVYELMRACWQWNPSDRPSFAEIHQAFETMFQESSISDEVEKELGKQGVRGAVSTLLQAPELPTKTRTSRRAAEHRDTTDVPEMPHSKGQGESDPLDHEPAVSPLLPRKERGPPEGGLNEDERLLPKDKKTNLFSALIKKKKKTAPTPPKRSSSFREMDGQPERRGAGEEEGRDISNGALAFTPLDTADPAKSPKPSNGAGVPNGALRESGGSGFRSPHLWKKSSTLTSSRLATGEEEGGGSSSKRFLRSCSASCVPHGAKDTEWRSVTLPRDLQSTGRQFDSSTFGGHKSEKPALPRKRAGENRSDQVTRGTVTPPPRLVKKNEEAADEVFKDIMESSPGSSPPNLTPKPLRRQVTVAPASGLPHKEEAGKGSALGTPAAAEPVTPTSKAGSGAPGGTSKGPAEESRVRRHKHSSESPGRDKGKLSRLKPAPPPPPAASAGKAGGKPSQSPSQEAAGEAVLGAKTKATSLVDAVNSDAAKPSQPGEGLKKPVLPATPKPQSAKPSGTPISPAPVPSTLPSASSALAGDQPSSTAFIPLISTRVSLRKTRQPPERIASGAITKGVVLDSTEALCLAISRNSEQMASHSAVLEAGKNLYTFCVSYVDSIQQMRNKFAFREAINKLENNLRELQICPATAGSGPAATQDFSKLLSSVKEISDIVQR
Lck(h) activated, sequence (P06239 whole entry): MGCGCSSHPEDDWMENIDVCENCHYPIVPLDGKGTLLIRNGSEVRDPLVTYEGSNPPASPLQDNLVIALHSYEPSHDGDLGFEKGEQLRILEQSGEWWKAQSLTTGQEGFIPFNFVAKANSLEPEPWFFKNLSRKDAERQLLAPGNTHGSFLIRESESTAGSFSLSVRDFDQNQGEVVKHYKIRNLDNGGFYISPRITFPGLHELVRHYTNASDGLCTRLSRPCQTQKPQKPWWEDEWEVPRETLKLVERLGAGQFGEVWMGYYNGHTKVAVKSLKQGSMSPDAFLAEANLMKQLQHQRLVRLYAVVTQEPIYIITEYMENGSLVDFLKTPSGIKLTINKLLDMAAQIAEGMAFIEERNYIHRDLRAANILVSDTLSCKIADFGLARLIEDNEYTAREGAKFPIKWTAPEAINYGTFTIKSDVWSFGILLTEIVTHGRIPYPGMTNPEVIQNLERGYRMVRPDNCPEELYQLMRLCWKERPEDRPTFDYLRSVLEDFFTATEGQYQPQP

As for FAKLAARLYRKALARQLGVAA [MMI-0300], the “% activity, 100 µM” value is 243% in the assay with Lck(h) activated; 135% in the assay with PDK1(h); 52% in the assay with Axl(h); 69% with Abl(h); 91% with eEF-2K(h); 18% with EphA5(h). The “% activity, 100 µM” value with EphB1(h) worked out at 44%.

KAFAKLAARLYRKALARQLGVAA [MMI-0400]: the “% activity, 100 µM” value is 216% in the assay with Lck(h) activated; 159% in the assay with PDK1(h); 41% with Axl(h); 84% with Abl(h); 43% with eEF-2K(h); 24% with EphA5(h). Further, the “% activity, 100 µM” value in the assay with EphB1(h) amounted to 58%.
